Test results published in the Immune Epitope Database (IEDB).

How the values were obtained:
Assay in all cases: IEDB peptide-MHC binding, purified MHC/competitive/radioactivity; ≥ and ≤ were set here for values at or beyond the usual limits of such assays
HLA-A*02:03 = target: HLA-A*02:03
HLA-A*02:02 = target: HLA-A*02:02
HLA-A*02:06 = target: HLA-A*02:06
HLA-A*02:01 = target: HLA-A*02:01
HLA-A*68:02 = target: HLA-A*68:02
[1] = source organism: Vaccinia virus WR
[2] = source organism: Influenza A virus
[3] = source organism: Hepacivirus hominis

IMSMMNITRL
IC50 (HLA-A*02:03; [1]): 106 nM
IC50 (HLA-A*02:02; [1]): 62 nM
IC50 (HLA-A*02:06; [1]): 585 nM
IC50 (HLA-A*02:01; [1]): 284 nM
IC50 (HLA-A*68:02; [1]): 119 nM

IVAMLLTHGA
IC50 (HLA-A*02:03; [1]): 153 nM
IC50 (HLA-A*02:02; [1]): 1160 nM
IC50 (HLA-A*02:06; [1]): 82 nM
IC50 (HLA-A*02:01; [1]): 4910 nM
IC50 (HLA-A*68:02; [1]): 505 nM

RIITILQDIV
IC50 (HLA-A*02:03; [1]): 209 nM
IC50 (HLA-A*02:02; [1]): 595 nM
IC50 (HLA-A*02:06; [1]): 95 nM
IC50 (HLA-A*02:01; [1]): 526 nM
IC50 (HLA-A*68:02; [1]): 290 nM

IIYSKAGNIL
IC50 (HLA-A*02:03; [1]): 110 nM
IC50 (HLA-A*02:02; [1]): 8.5 nM
IC50 (HLA-A*02:06; [1]): 342 nM
IC50 (HLA-A*02:01; [1]): 542 nM
IC50 (HLA-A*68:02; [1]): 3920 nM

ELTTVFIKYV
IC50 (HLA-A*02:03; [1]): 719 nM
IC50 (HLA-A*02:02; [1]): 2800 nM
IC50 (HLA-A*02:06; [1]): 463 nM
IC50 (HLA-A*02:01; [1]): 2560 nM
IC50 (HLA-A*68:02; [1]): 81 nM

FTSDYPFYV
IC50 (HLA-A*02:03; [1]): 3.9 nM
IC50 (HLA-A*02:02; [1]): 2.1 nM
IC50 (HLA-A*02:06; [1]): 3.6 nM
IC50 (HLA-A*02:01; [1]): 1.5 nM
IC50 (HLA-A*68:02; [1]): 1.1 nM

FLAFLLFLV
IC50 (HLA-A*02:03; source organism: SARS-CoV1): 58 nM
IC50 (HLA-A*02:02; source organism: SARS-CoV1): 1.8 nM
IC50 (HLA-A*02:06; source organism: SARS-CoV1): 9 nM
IC50 (HLA-A*02:01; source organism: SARS-CoV1): 8.3 nM
IC50 (HLA-A*68:02; source organism: SARS-CoV1): 66 nM

TLLCVLAALV
IC50 (HLA-A*02:03; source organism: SARS-CoV1): 77 nM
IC50 (HLA-A*02:02; source organism: SARS-CoV1): 4.6 nM
IC50 (HLA-A*02:06; source organism: SARS-CoV1): 65 nM
IC50 (HLA-A*02:01; source organism: SARS-CoV1): 29 nM
IC50 (HLA-A*68:02; source organism: SARS-CoV1): 4390 nM

DTCLLAISAV
IC50 (HLA-A*02:03; [1]): 93 nM
IC50 (HLA-A*02:02; [1]): 2460 nM
IC50 (HLA-A*02:06; [1]): 106 nM
IC50 (HLA-A*02:01; [1]): 46 nM
IC50 (HLA-A*68:02; [1]): 118 nM

MLWCKDGHV
IC50 (HLA-A*02:03; source organism: SARS-CoV1): 11 nM
IC50 (HLA-A*02:02; source organism: SARS-CoV1): 10 nM
IC50 (HLA-A*02:06; source organism: SARS-CoV1): 362 nM
IC50 (HLA-A*02:01; source organism: SARS-CoV1): 30 nM
IC50 (HLA-A*68:02; source organism: SARS-CoV1): 74 nM

FTFGDTALYV
IC50 (HLA-A*02:03; [1]): 48 nM
IC50 (HLA-A*02:02; [1]): 24 nM
IC50 (HLA-A*02:06; [1]): 3.5 nM
IC50 (HLA-A*02:01; [1]): 181 nM
IC50 (HLA-A*68:02; [1]): 175 nM

NMDWRSLTQV
IC50 (HLA-A*02:03; [1]): 17 nM
IC50 (HLA-A*02:02; [1]): 100 nM
IC50 (HLA-A*02:06; [1]): 1.7 nM
IC50 (HLA-A*02:01; [1]): 4.2 nM
IC50 (HLA-A*68:02; [1]): 826 nM

FVDTMSIYIA
IC50 (HLA-A*02:03; [1]): 2390 nM
IC50 (HLA-A*02:02; [1]): 154 nM
IC50 (HLA-A*02:06; [1]): 1100 nM
IC50 (HLA-A*02:01; [1]): 1630 nM
IC50 (HLA-A*68:02; [1]): 229 nM

QMAGVEVRYI
IC50 (HLA-A*02:03; [1]): 0.14 nM
IC50 (HLA-A*02:02; [1]): 0.21 nM
IC50 (HLA-A*02:06; [1]): 45 nM
IC50 (HLA-A*02:01; [1]): 6.4 nM
IC50 (HLA-A*68:02; [1]): 147 nM

FTNSQIFNII
IC50 (HLA-A*02:03; [1]): 457 nM
IC50 (HLA-A*02:02; [1]): 143 nM
IC50 (HLA-A*02:06; [1]): 1200 nM
IC50 (HLA-A*02:01; [1]): 1570 nM
IC50 (HLA-A*68:02; [1]): 16 nM

FTYASALWEI
IC50 (HLA-A*02:03; source organism: SARS-CoV1): 6 nM
IC50 (HLA-A*02:02; source organism: SARS-CoV1): 1.6 nM
IC50 (HLA-A*02:06; source organism: SARS-CoV1): 2.5 nM
IC50 (HLA-A*68:02; source organism: SARS-CoV1): 1.7 nM

FNMLSTVLGV
IC50 (HLA-A*02:03; [2]): 11 nM
IC50 (HLA-A*02:02; [2]): 16 nM
IC50 (HLA-A*02:06; [2]): 31 nM
IC50 (HLA-A*68:02; [2]): 860 nM

SLFIESSICL
IC50 (HLA-A*02:03; [1]): 293 nM
IC50 (HLA-A*02:02; [1]): 99 nM
IC50 (HLA-A*02:06; [1]): 982 nM
IC50 (HLA-A*68:02; [1]): 2160 nM

RLWHYPCTV
IC50 (HLA-A*02:03; [3]): 17 nM
IC50 (HLA-A*02:02; [3]): 165 nM
IC50 (HLA-A*02:06; [3]): 131 nM
IC50 (HLA-A*68:02; [3]): 4310 nM

RIEDMFLTSV
IC50 (HLA-A*02:03; [1]): 71 nM
IC50 (HLA-A*02:02; [1]): 548 nM
IC50 (HLA-A*02:06; [1]): 168 nM
IC50 (HLA-A*68:02; [1]): 1430 nM

SMWALVISV
IC50 (HLA-A*02:03; source organism: SARS-CoV1): 4.4 nM
IC50 (HLA-A*02:02; source organism: SARS-CoV1): 6.1 nM
IC50 (HLA-A*02:06; source organism: SARS-CoV1): 0.79 nM
IC50 (HLA-A*68:02; source organism: SARS-CoV1): 252 nM

FLLVTLAIL
IC50 (HLA-A*02:03; source organism: SARS-CoV1): 0.97 nM
IC50 (HLA-A*02:02; source organism: SARS-CoV1): 0.64 nM
IC50 (HLA-A*02:06; source organism: SARS-CoV1): 0.48 nM
IC50 (HLA-A*68:02; source organism: SARS-CoV1): 1900 nM

FLITGVFDI
IC50 (HLA-A*02:03; source organism: SARS-CoV1): 0.76 nM
IC50 (HLA-A*02:02; source organism: SARS-CoV1): 0.69 nM
IC50 (HLA-A*02:06; source organism: SARS-CoV1): 1.5 nM
IC50 (HLA-A*68:02; source organism: SARS-CoV1): 62 nM

FLTSLLILV
IC50 (HLA-A*02:03; source organism: SARS-CoV1): 12 nM
IC50 (HLA-A*02:02; source organism: SARS-CoV1): 2.2 nM
IC50 (HLA-A*02:06; source organism: SARS-CoV1): 3.3 nM
IC50 (HLA-A*68:02; source organism: SARS-CoV1): 260 nM

TLMNVITLV
IC50 (HLA-A*02:03; source organism: SARS-CoV1): 0.25 nM
IC50 (HLA-A*02:02; source organism: SARS-CoV1): 0.34 nM
IC50 (HLA-A*02:06; source organism: SARS-CoV1): 0.7 nM
IC50 (HLA-A*68:02; source organism: SARS-CoV1): 13 nM

QMWKCLIRL
IC50 (HLA-A*02:03; [3]): 317 nM
IC50 (HLA-A*02:02; [3]): 175 nM
IC50 (HLA-A*02:06; [3]): 218 nM
IC50 (HLA-A*68:02; [3]): 3230 nM

YTRPEIDVL
IC50 (HLA-A*02:03; [1]): 74 nM
IC50 (HLA-A*02:02; [1]): 115 nM
IC50 (HLA-A*02:06; [1]): 154 nM
IC50 (HLA-A*68:02; [1]): 528 nM

VLAWLYAAV
IC50 (HLA-A*02:03; source organism: SARS-CoV1): 0.31 nM
IC50 (HLA-A*02:02; source organism: SARS-CoV1): 0.097 nM
IC50 (HLA-A*02:06; source organism: SARS-CoV1): 8.8 nM
IC50 (HLA-A*68:02; source organism: SARS-CoV1): 37 nM

NMLSTVLGV
IC50 (HLA-A*02:03; [2]): 10 nM
IC50 (HLA-A*02:06; [2]): 71 nM

TLLCVLAAL
IC50 (HLA-A*02:03; source organism: SARS-CoV1): 11 nM
IC50 (HLA-A*02:02; source organism: SARS-CoV1): 8.1 nM
IC50 (HLA-A*02:06; source organism: SARS-CoV1): 8 nM
IC50 (HLA-A*68:02; source organism: SARS-CoV1): 431 nM

FLNRFTTTL
IC50 (HLA-A*02:03; source organism: SARS-CoV1): 1 nM
IC50 (HLA-A*02:02; source organism: SARS-CoV1): 0.66 nM
IC50 (HLA-A*02:06; source organism: SARS-CoV1): 58 nM
IC50 (HLA-A*68:02; source organism: SARS-CoV1): 286 nM

MLLRSAIGQV
IC50 (HLA-A*02:03; [2]): 7 nM
IC50 (HLA-A*02:02; [2]): 1390 nM
IC50 (HLA-A*02:06; [2]): 242 nM
IC50 (HLA-A*68:02; [2]): 1710 nM

FISGIQYLA
IC50 (HLA-A*02:03; [3]): 832 nM
IC50 (HLA-A*02:02; [3]): 8.6 nM
IC50 (HLA-A*02:06; [3]): 1340 nM
IC50 (HLA-A*68:02; [3]): 12 nM

YLNTPGLPV
IC50 (HLA-A*02:03; [3]): 12 nM
IC50 (HLA-A*02:02; [3]): 9.3 nM
IC50 (HLA-A*02:06; [3]): 847 nM
IC50 (HLA-A*68:02; [3]): 196 nM

IIGHIGHHYI
IC50 (HLA-A*02:03; [1]): 186 nM
IC50 (HLA-A*02:02; [1]): 400 nM
IC50 (HLA-A*02:06; [1]): 1350 nM
IC50 (HLA-A*68:02; [1]): 222 nM

SMHFYGWSL
IC50 (HLA-A*02:06; [1]): 383 nM
IC50 (HLA-A*02:01; [1]): 192 nM
IC50 (HLA-A*68:02; [1]): 11 nM

KTIAVSVYGA
IC50 (HLA-A*02:03; [1]): 224 nM
IC50 (HLA-A*02:02; [1]): 366 nM
IC50 (HLA-A*02:06; [1]): 427 nM
IC50 (HLA-A*68:02; [1]): 235 nM

MTSTRTIILV
IC50 (HLA-A*02:03; [1]): 920 nM
IC50 (HLA-A*02:02; [1]): 1980 nM
IC50 (HLA-A*02:06; [1]): 217 nM
IC50 (HLA-A*68:02; [1]): 173 nM

TLNEDLLEI
IC50 (HLA-A*02:03; source organism: SARS-CoV1): 2.2 nM
IC50 (HLA-A*02:02; source organism: SARS-CoV1): 1.4 nM
IC50 (HLA-A*02:06; source organism: SARS-CoV1): 56 nM
IC50 (HLA-A*68:02; source organism: SARS-CoV1): 1460 nM

KLRSSPPIPM
IC50 (HLA-A*02:03; [1]): 134 nM
IC50 (HLA-A*02:02; [1]): 58 nM
IC50 (HLA-A*02:06; [1]): 2210 nM
IC50 (HLA-A*68:02; [1]): 4280 nM
